This is an account of results in patent US20080280300A1, “Method” (PLASTICELL LIMITED, priority 2005, published 2008).

For this data set, the system named is myeloid progenitors derived from mouse embryonic stem cells (D3 ES cells) on microcarriers. The experiment in a line: mESC-based cell assay for regenerative drugs: conversion of myeloid progenitors to macrophage (DQ-ovalbumin). The settings on record: 48 h, triplicate, basal level 1%. The protocol: A screen was performed to identify regenerative drugs capable of stimulating the myeloid lineages of the haematopoietic system. The screen was performed by using a series of culture steps to differentiate mouse embryonic stem cells (mESC) seeded on microcarriers into progenitors of the myeloid lineages, and subsequently subjecting these to culture conditions in the presence or absence of the lineage specific haematopoietic growth factors TPO, M-CSF and IL-5, or the control compound Vitamin C which is reported to affect cell survival but is not a haematopoietic growth factor. After 48 hours the effect on myeloid cell differentiation was assessed using the appearance of macrophages as a surrogate assay. This screen identified TPO and M-CSF as haematopoietic regenerative drugs capable of stimulating the myeloid lineage.
On the day preceding day 1 of the experiment, approximately 1.5×10^4 biotinylated micocarriers equilibrated in medium A (IMDM (Gibco), 15% KOSR, 1% NEAA, 0.5% pen/strep, 0.1 mM β-ME, 1000 U/ml LIF and 1.5×10^−4 M, 1-thioglycerol (MTG; Sigma)) were added to 100 ml of medium A containing approximately 4.5×10^6 ES cells, split into three equal aliquots placed in wells of a 100 mm square petri dish (Bibby Sterilin) and incubated overnight.
In order to prepare myeloid progenitors a two step method was employed. Beads seeded with mESC as described above were incubated in IMDM containing […] retinoic acid for 72 h. The beads were then washed in PBS and transferred to Stemline™ Haematopoietic Expansion Medium (Sigma) containing 40 ng/ml SCF, 2.5 ng TGFβ1, 5 ng/ml BMP2 and 20 ng/ml TPO and incubated for 48 h:
Beads blearing myeloid progenitors prepared as described above were mixed, washed in PBS and transferred to the Test Growth Medium (Stemline™Haematopoietic Expansion Medium (Sigma) supplemented with 30 ng/ml IL-3 and 20 ng/ml IL-6). Equal aliquots of approximately 100 beads were dispensed into the wells of a 48 well plate and incubated in the presence or absence of 50 μg/ml Vitamin C, 10 ng/ml IL-5, 20 ng/ml TPO and 20 ng/ml M-CSF. The screen was carried out in triplicate in wells of separate plates placed in the same incubator.
After 48 h, 1 mg of the macrophage assay reagent DQ-ovalbumin (Molecular Probes) was made up in 0.4 ml PBS and added to each well at a dilution of 1:100. Following incubation for at least 4 h, the medium was aspirated and replaced with PBS. The samples were examined on a Nikon TE2000-S inverted epifluorescent microscope using a-FITC filter set to quantitate microcarriers bearing large, round cells internally labelled with green fluorescence.
The results of the screen are reported as the average number (per cent) of microcarriers that were decorated with macrophage. […]

The mark [1] stands for this setting: 20 ng/ml TPO or M-CSF in Test Growth Medium (IL-3, IL-6).

For the molecule `O=C1O[C@H]([C@@H](O)CO)C(O)=C1O` [Vitamin C, Ascorbic acid, reference compound], the “average conversion to macrophage (average number (per cent) of microcarriers decorated with macrophage)” value (50 μg/ml Vitamin C in Test Growth Medium (IL-3, IL-6)) is reported as 0%.

B1: M-CSF: murine macrophage colony stimulating factor (R&D Systems), haematopoietic growth factor (protein, UniProt P07141 33-552, looked up)
Macrophage colony-stimulating …: KEVSEHCSHMIGNGHLKVLQQLIDSQMETSCQIAFEFVDQEQLDDPVCYLKKAFFLVQDIIDETMRFKDNTPNANATERLQELSNNLNSCFTKDYEEQNKACVRTFHETPLQLLEKIKNFFNETKNLLEKDWNIFTKNCNNSFAKCSSRDVVTKPDCNCLYPKATPSSDPASASPHQPPAPSMAPLAGLAWDDSQRTEGSSLLPSELPLRIEDPGSAKQRPPRSTCQTLESTEQPNHGDRLTEDSQPHPSAGGPVPGVEDILESSLGTNWVLEEASGEASEGFLTQEAKFSPSTPVGGSIQAETDRPRALSASPFPKSTEDQKPVDITDRPLTEVNPMRPIGQTQNNTPEKTDGTSTLREDHQEPGSPHIATPNPQRVSNSATPVAQLLLPKSHSWGIVLPLGELEGKRSTRDRRSPAELEGGSASEGAARPVARFNSIPLTDTGHVEQHEGSSDPQIPESVFHLLVPGIILVLLTVGGLLFYKWKWRSHRDPQTLDSSVGRPEDSSLTQDEDRQVELPV
On to B1, for which the “average conversion to macrophage (average number (per cent) of microcarriers decorated with macrophage)” value under setting [1] was 6%.

B2: IL-5: mouse interleukin 5 (R&D Systems), haematopoietic growth factor (protein, UniProt P04401 21-133, looked up)
Interleukin-5: MEIPMSTVVKETLTQLSAHRALLTSNETMRLPVPTHKNHQLCIGEIFQGLDILKNQTVRGGTVEMLFQNLSLIKKYIDRQKEKCGEERRRTRQFLDYLQEFLGVMSTEWAMEG
As for B2, the “average conversion to macrophage (average number (per cent) of microcarriers decorated with macrophage)” value (10 ng/ml IL-5 in Test Growth Medium (IL-3, IL-6)) is 0%.

B3: TPO: murine thrombopoietin (R&D Systems), haematopoietic growth factor (protein, UniProt P40226 22-356, looked up)
Thrombopoietin: SPVAPACDPRLLNKLLRDSHLLHSRLSQCPDVDPLSIPVLLPAVDFSLGEWKTQTEQSKAQDILGAVSLLLEGVMAARGQLEPSCLSSLLGQLSGQVRLLLGALQGLLGTQLPLQGRTTAHKDPNALFLSLQQLLRGKVRFLLLVEGPTLCVRRTLPTTAVPSSTSQLLTLNKFPNRTSGLLETNFSVTARTAGPGLLSRLQGFRVKITPGQLNQTSRSPVQISGYLNRTHGPVNGTHGLFAGTSLQTLEASDISPGAFNKGSLAFNLQGGLPPSPSLAPDGHTPFPPSPALPTTHGSPPQLHPLFPDPSTTMPNSTAPHPVTMYPHPRNLSQET
As to B3, the “average conversion to macrophage (average number (per cent) of microcarriers decorated with macrophage)” value under setting [1] is recorded as 6%.
